Target: Alexa Fluor-AChR conjugate (acetylcholine receptor purified from Torpedo californica electric organs, labelled with Alexa Fluor 488 or 647) (Torpedo californica) (UniProt P02710)
Assay: flow cytometry, CD19+ B cells stained with Alexa-AChR

Row | Percent of B cells that were AChR+ (lymph node, mean) | Substance
1 | 10.4% | B cells (CD19+ or B220+) from CFA+AChR-immunized C57BL/6 mice with EAMG (spleen, lymph node, peripheral blood) (cells without a defined receptor)
2 | 5.6% | B cells from unimmunized naive C57BL/6 mice (cells without a defined receptor)

Source: patent US8530245B2
